Test results as given in the supplement of paper PMC9112550, “Optimization of the antimicrobial peptide Bac7 by deep mutational scanning” (BMC Biology, 2022).

Tested on: Escherichia coli TOP10
Test: shrunken log2 fold change of peptide-encoding DNA abundance (4.5 h post-induction vs induction); higher = less antimicrobial activity (less host growth inhibition)
Conditions: time post-induction: 4.5 h; library: site-saturation at positions 5, 18, 19, 20
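Further: peptides expressed intracellularly from a pBAD plasmid library in pooled LB shake-flask culture, induced with 0.3% L-arabinose, DNA abundance read by NGS, three biological replicates, DESeq2 with apeglm shrinkage.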

| Sequence | shrunken log2 fold change |
| --- | --- |
| RRIRARPPRLPRPRPRPNQEPRP | -0.000902 |
| RRIRCRPPRLPRPRPRPHTRPRP | -0.372 |
| RRIRIRPPRLPRPRPRPLQVPRP | -2 |
| RRIRIRPPRLPRPRPRPIEVPRP | -0.0018 |
| RRIRQRPPRLPRPRPRPGNYPRP | -0.222 |
| RRIRNRPPRLPRPRPRPWYFPRP | -0.222 |
| RRIRYRPPRLPRPRPRPDLRPRP | -1.03 |
| RRIRGRPPRLPRPRPRPEFLPRP | 1.01 |
| RRIRSRPPRLPRPRPRPRVTPRP | 0.169 |
| RRIRMRPPRLPRPRPRPTSDPRP | 0.055 |
| RRIRDRPPRLPRPRPRPHKWPRP | -0.202 |
| RRIRIRPPRLPRPRPRPGKRPRP | 0.0192 |
| RRIRPRPPRLPRPRPRPKLHPRP | -0.00244 |
| RRIRQRPPRLPRPRPRPMYSPRP | -0.746 |
| RRIRYRPPRLPRPRPRPSGQPRP | -0.000925 |
| RRIRCRPPRLPRPRPRPPSHPRP | -0.0142 |
| RRIRNRPPRLPRPRPRPFVIPRP | -0.528 |
| RRIRVRPPRLPRPRPRPKHQPRP | 0.0697 |
| RRIRRRPPRLPRPRPRPHECPRP | 0.0921 |
| RRIRKRPPRLPRPRPRPWRCPRP | -0.0463 |
| RRIRYRPPRLPRPRPRPIQKPRP | -0.00992 |
| RRIRRRPPRLPRPRPRPKMAPRP | 0.201 |

| Sequence | shrunken log2 fold change |
| --- | --- |
| RRIRWRPPRLPRPRPRPRGLPRP | 0.698 |
| RRIRQRPPRLPRPRPRPMSRPRP | -0.0221 |
| RRIRQRPPRLPRPRPRPWGNPRP | 0.0303 |
| RRIRMRPPRLPRPRPRPLGYPRP | -0.264 |
| RRIRRRPPRLPRPRPRPYLCPRP | -0.404 |
| RRIRVRPPRLPRPRPRPMIEPRP | -0.255 |
| RRIRDRPPRLPRPRPRPSYLPRP | -0.233 |
| RRIRDRPPRLPRPRPRPSCCPRP | 1.57 |
| RRIRARPPRLPRPRPRPIFVPRP | 0.233 |
| RRIRCRPPRLPRPRPRPFMDPRP | -0.361 |
| RRIRSRPPRLPRPRPRPFWWPRP | 0.309 |
| RRIRRRPPRLPRPRPRPPENPRP | 0.615 |
| RRIRKRPPRLPRPRPRPKYWPRP | 0.255 |
| RRIRWRPPRLPRPRPRPTNNPRP | 0.0375 |
| RRIRWRPPRLPRPRPRPFPCPRP | -0.0902 |
| RRIRYRPPRLPRPRPRPTMRPRP | 0.243 |
| RRIRSRPPRLPRPRPRPVPHPRP | 0.0775 |
| RRIRHRPPRLPRPRPRPFTRPRP | -0.132 |
| RRIRDRPPRLPRPRPRPMRWPRP | 0.274 |
| RRIRIRPPRLPRPRPRPGGGPRP | 0.659 |
| RRIRGRPPRLPRPRPRPSHIPRP | 0.0558 |
| RRIRWRPPRLPRPRPRPKMGPRP | 0.0381 |

| Sequence | shrunken log2 fold change |
| --- | --- |
| RRIRSRPPRLPRPRPRPGCDPRP | 0.332 |
| RRIRMRPPRLPRPRPRPCSRPRP | 0.296 |
| RRIRVRPPRLPRPRPRPFTQPRP | 0.0152 |
| RRIRARPPRLPRPRPRPIGYPRP | -0.0969 |
| RRIRNRPPRLPRPRPRPPSDPRP | -0.118 |
| RRIRHRPPRLPRPRPRPNQLPRP | -0.154 |
| RRIRKRPPRLPRPRPRPIFFPRP | 0.414 |
| RRIRNRPPRLPRPRPRPWWHPRP | -0.104 |
| RRIRGRPPRLPRPRPRPFYEPRP | 0.0153 |
| RRIRPRPPRLPRPRPRPNIFPRP | -0.189 |
| RRIRVRPPRLPRPRPRPGGPPRP | 0.0704 |
| RRIRLRPPRLPRPRPRPKQTPRP | 0.0369 |
| RRIRCRPPRLPRPRPRPCWQPRP | -0.0116 |
| RRIRHRPPRLPRPRPRPYFSPRP | -0.129 |
| RRIRPRPPRLPRPRPRPTKWPRP | 0.187 |
| RRIRDRPPRLPRPRPRPVSSPRP | -0.0849 |
| RRIRERPPRLPRPRPRPGRNPRP | -0.237 |
| RRIRRRPPRLPRPRPRPSEWPRP | -0.15 |
| RRIRMRPPRLPRPRPRPRTFPRP | 0.541 |
| RRIRNRPPRLPRPRPRPCRIPRP | -0.134 |
| RRIRCRPPRLPRPRPRPQWTPRP | -0.205 |
| RRIRKRPPRLPRPRPRPHWPPRP | 0.31 |

| Sequence | shrunken log2 fold change |
| --- | --- |
| RRIRRRPPRLPRPRPRPQEIPRP | -0.149 |
| RRIRMRPPRLPRPRPRPWNGPRP | -0.0377 |
| RRIRRRPPRLPRPRPRPKYSPRP | -0.124 |
| RRIRKRPPRLPRPRPRPMNVPRP | 0.13 |
| RRIRWRPPRLPRPRPRPREGPRP | 1.28 |
| RRIRGRPPRLPRPRPRPFYVPRP | 0.0462 |
| RRIRPRPPRLPRPRPRPTDAPRP | 0.12 |
| RRIRARPPRLPRPRPRPWKGPRP | 0.142 |
| RRIRQRPPRLPRPRPRPEQMPRP | -0.00448 |
| RRIRIRPPRLPRPRPRPVIFPRP | -0.402 |
| RRIRKRPPRLPRPRPRPRVYPRP | 0.307 |
| RRIRWRPPRLPRPRPRPTLMPRP | 0.479 |
| RRIRQRPPRLPRPRPRPNCSPRP | -0.0334 |
| RRIRWRPPRLPRPRPRPPHCPRP | 0.754 |
| RRIRSRPPRLPRPRPRPTFFPRP | -0.0698 |
| RRIRARPPRLPRPRPRPVPYPRP | -0.0718 |
| RRIRHRPPRLPRPRPRPWYIPRP | -0.549 |
| RRIRTRPPRLPRPRPRPNLNPRP | -0.55 |
| RRIRCRPPRLPRPRPRPCLLPRP | -1.45 |
| RRIRVRPPRLPRPRPRPSRDPRP | -0.0563 |
| RRIRNRPPRLPRPRPRPVLHPRP | -0.00264 |
| RRIRERPPRLPRPRPRPTHDPRP | -0.141 |

| Sequence | shrunken log2 fold change |
| --- | --- |
| RRIRLRPPRLPRPRPRPFKIPRP | -0.00613 |
| RRIRDRPPRLPRPRPRPVPTPRP | 0.247 |
| RRIRIRPPRLPRPRPRPVRQPRP | -0.0328 |
| RRIRNRPPRLPRPRPRPHFYPRP | -0.816 |
| RRIRMRPPRLPRPRPRPRWWPRP | 1.11 |
| RRIRQRPPRLPRPRPRPTLLPRP | -0.0944 |
| RRIRSRPPRLPRPRPRPGSGPRP | 0.32 |
| RRIRSRPPRLPRPRPRPAAEPRP | 0.466 |
| RRIRDRPPRLPRPRPRPVADPRP | 0.22 |
| RRIRLRPPRLPRPRPRPFGWPRP | 0.0538 |
| RRIRYRPPRLPRPRPRPMFFPRP | -0.618 |
| RRIRGRPPRLPRPRPRPGNHPRP | -0.147 |
| RRIRWRPPRLPRPRPRPCGQPRP | 0.137 |
| RRIRRRPPRLPRPRPRPSSVPRP | 0.131 |
| RRIRTRPPRLPRPRPRPNGFPRP | -0.0646 |
| RRIRGRPPRLPRPRPRPQTCPRP | 0.403 |
| RRIRYRPPRLPRPRPRPGYDPRP | -0.205 |
| RRIRERPPRLPRPRPRPKCMPRP | -0.0455 |
| RRIRRRPPRLPRPRPRPRCHPRP | 0.127 |
| RRIRQRPPRLPRPRPRPMLNPRP | 0.014 |
| RRIRLRPPRLPRPRPRPDFTPRP | 0.102 |
